Patent publication US20130177579A1 (BIOALLIANCE C V, published 2013)

B1: antibody 6-90 (antibody, mouse IgM, V domains shown)
VH: EVELQQFGIEMVKPGASVKISCKASGYIFTDYHMDWVRQSHGKSLEWIGDIDPKYDRVTYNQKFKGKASLTADKSSSTAYMELRSLTSEDTAVYYCAKTGAYGDYLAYWGQGTLVTVSA
VL: DLVMTQTPLSLPVSLGDQASISCRSSQSLVHSDGNTYFYWYLQKPGQSPKLLIYKVSNRFSGVPDRFSAGGSGTYFTLKISRVEAEDLGVYFCSQTTHFPPTFGGGTKLEIKR
notes: Mouse IgM, kappa from a hybridoma; tested as hybridoma culture supernatant
B2: antibody 55-31 (antibody, mouse IgM, V domains shown)
VH: QVQLQQPGAELVKPGTSVKLSCKASGYNFTSYWINWVKLRPGQGLEWIGDIYPGSGSTNYNEKFKSKATLTVDTSSSTAYMQLSSLASEDSALYYCARSAYRYDWFAYWGQGTLVTVSA
VL: DIQMTQSPASLSVSVGETVTITCRASENIYSNLAWYQQKQGKSPQLLVYAATNLADGVPSRFSGSGSGTQYSLKINSLQSEDFGSYYCQHFWGTPYTFGGGTKLEIKR
notes: as for B1
B3: antibody 122-72 (antibody, V domains shown)
VH: EVQLVESGGGLVQPKGSLKLSCAASGFTFNTYAMNWVRQAPGKGLEWVARIRSKSNNYATYYADSVKDRFTISRDDSQSMLYLQMNNLKTEDTAMYYCVAYGSRNYWGQGTTLTVSS
VL: DIVMTQSPSSLTVTAGEKVTMSCKSSQSLLNSGNQKNYLTWYQQKPGQPPKLLIYWASTRESGVPDRFTGSGSGTDFTLTISSVQAEDLAVYYCQNDYSYPYTFGGGTKLEIKR
notes: Mouse IgM, kappa from a hybridoma; tested as hybridoma culture supernatant; Antibody 60-43 is said to have the same CDRs

Experiments:
[1] = biological target: T1, human transferrin receptor expressed by normal human cells (RBC, PMN, lymphocytes, monocytes, platelets, … (human, UniProt P02786 1-760)); experiment: FACS, PMN, donor D005, 1x
T1 construct: The assay is whole-cell FACS on normal donor cells; also called TfR on normal cells
T1 sequence (P02786 whole entry G142S): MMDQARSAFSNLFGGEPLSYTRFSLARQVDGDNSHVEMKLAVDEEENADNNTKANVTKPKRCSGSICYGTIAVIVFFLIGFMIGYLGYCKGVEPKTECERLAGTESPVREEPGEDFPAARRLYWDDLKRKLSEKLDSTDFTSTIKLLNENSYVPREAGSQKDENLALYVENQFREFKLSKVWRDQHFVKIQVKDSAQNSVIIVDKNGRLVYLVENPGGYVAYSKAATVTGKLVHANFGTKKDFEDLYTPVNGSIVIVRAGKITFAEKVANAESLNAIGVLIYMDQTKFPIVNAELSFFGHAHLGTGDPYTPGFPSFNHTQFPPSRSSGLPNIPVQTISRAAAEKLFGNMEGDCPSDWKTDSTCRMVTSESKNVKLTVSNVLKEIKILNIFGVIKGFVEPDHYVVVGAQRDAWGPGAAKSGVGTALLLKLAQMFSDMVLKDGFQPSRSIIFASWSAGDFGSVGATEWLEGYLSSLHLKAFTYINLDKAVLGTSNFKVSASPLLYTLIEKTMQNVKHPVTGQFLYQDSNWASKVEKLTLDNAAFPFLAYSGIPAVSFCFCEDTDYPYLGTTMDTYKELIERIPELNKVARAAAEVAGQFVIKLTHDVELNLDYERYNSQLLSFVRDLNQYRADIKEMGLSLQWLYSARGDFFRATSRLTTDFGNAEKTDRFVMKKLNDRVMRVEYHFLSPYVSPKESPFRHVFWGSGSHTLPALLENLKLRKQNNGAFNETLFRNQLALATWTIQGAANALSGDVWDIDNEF
Method: (§1) The hyper-immuned serum (Hyp-serum) or the corresponding cell marker antibodies for certain cell types were included as positive controls.
(§2) 1×10⁵ cells were seeded in each well of a v-bottomed 96-well plate and incubated with 50 μl of hybridoma culture supernatant at 1× and 10× dilution, or isotype control antibody mouse IgM, κ (BD™, Cat. No. 557275) at concentration of 1 μg/ml. A 300× dilution of human cell hyper-immune serum was used as binding positive control for all cell types. PE-conjugated anti-human CD41a (Southern Biotech™, Cat. No. 9391-09) was used as a positive control for staining human platelets. Anti-sialyl Lewis x antibody (Millipore™, Cat. No. MAB2096) was used as a positive control for staining human PMN. Anti-human CD31 (Hycult™, Cat. No. HM2039) was used as a positive control for staining HUVEC. After 30 minutes incubation at 4° C., cells were washed twice with 200 μl FACS buffer (1×PBS containing 1% FBS), stained with 50 μl of 1 μg/ml goat F(ab′)2-anti-mouse IgG(H+L)-PE (Southern Biotech™, Cat. No. 1032-09) or 1 μg/ml goat F(ab′)2-anti-mouse IgM(H+L)-PE (Southern Biotech™, Cat. No. 1022-09) in FACS buffer. After 30 minutes of incubation at 4° C., cells were washed twice with FACS buffer and analyzed by flow cytometry (BD LSR, BD Life Sciences).

[2] = biological target: T1, human transferrin receptor expressed by …; experiment: FACS, PMN, donor D016, 1/10x
Method: (§3) Preparation of PBMC and PMN: The whole blood was diluted with an equal volume of PBS and mixed with 1/10 volume of 15% Dextran solution. […] After centrifugation at 2200 rpm for 15 min (rotor: SORVALL, PN11788 and centrifuge: SORVALL, RT7), PBMC concentrated in the interface, were collected and washed with large volumes of FACS buffer (2% FBS in PBS) for future use. The PMN-rich pellet was collected, from which residual RBC was removed by hypotonic lysis in 0.2% NaCl.
as §2

[3] = biological target: T1, human transferrin receptor expressed by …; experiment: FACS, platelets, donor D014, 1/10x
Method: as §1, §2

[4] = biological target: T1, human transferrin receptor expressed by …; experiment: FACS, RBC, donor D005, 1x
Method: as §1, §2

[5] = biological target: T1, human transferrin receptor expressed by …; experiment: FACS, platelets, donor D016, 1x
Method: as §1, §2

[6] = biological target: human transferrin receptor expressed by nonhematopoietic cancer cells (human) (UniProt P02786); experiment: FACS, OMC-3 cells, 1X
human transferrin receptor expressed by nonhematopoietic cancer cells (human), sequence (P02786 whole entry G142S): as above

[7] = biological target: T1, human transferrin receptor expressed by …; experiment: FACS, lymphocytes, donor D016, 1x
Method: as §1, §2

[8] = biological target: human transferrin receptor expressed by nonhematopoietic cancer cells (human) (UniProt P02786); experiment: FACS, KLE cells, 1/5X
[9] = biological target: T1, human transferrin receptor expressed by …; experiment: FACS, PMN, donor D102, 1/10x
Method: as §3, §2

[10] = biological target: T2, human transferrin receptor expressed by Jurkat cells (human, UniProt P02786 1-760); experiment: FACS, Jurkat cells, 1X
T2 construct: Endogenous receptor on Jurkat cells; MEM189 was the positive control; also called TfR on T leukemia cell line Jurkat
T2 sequence (P02786 whole entry G142S): as above

[11] = biological target: T1, human transferrin receptor expressed by …; experiment: FACS, lymphocytes, donor D102, 1/10x
Method: as §3, §2

[12] = biological target: T1, human transferrin receptor expressed by …; experiment: FACS, monocytes, donor D016, 1/10x
Method: as §1, §2

[13] = biological target: human transferrin receptor expressed by nonhematopoietic cancer cells (human) (UniProt P02786); experiment: FACS, Kato III cells, 1X
[14] = biological target: human transferrin receptor expressed by nonhematopoietic cancer cells (human) (UniProt P02786); experiment: FACS, OMC-3 cells, 1/5X
[15] = biological target: human transferrin receptor expressed by nonhematopoietic cancer cells (human) (UniProt P02786); experiment: FACS, SU.86.86 cells, 1X
[16] = biological target: T1, human transferrin receptor expressed by …; experiment: FACS, platelets, donor D005, 1x
Method: as §1, §2

[17] = biological target: T1, human transferrin receptor expressed by …; experiment: FACS, lymphocytes, donor D014, 1x
Method: as §3, §2

[18] = biological target: human transferrin receptor expressed by nonhematopoietic cancer cells (human) (UniProt P02786); experiment: FACS, MDA-MB-453 cells, 1X
[19] = biological target: T1, human transferrin receptor expressed by …; experiment: FACS, RBC, donor D014, 1x
Method: as §1, §2

[20] = biological target: human transferrin receptor expressed by nonhematopoietic cancer cells (human) (UniProt P02786); experiment: FACS, HEC-1-A cells, 1X
[21] = biological target: T1, human transferrin receptor expressed by …; experiment: FACS, PMN, donor D016, 1x
Method: as §3, §2

[22] = biological target: human transferrin receptor expressed by nonhematopoietic cancer cells (human) (UniProt P02786); experiment: FACS, H358 cells, 1/10X

| Binder | % positive cell binding [1] [%] | % positive cell binding [2] [%] | % positive cell binding [3] [%] | % positive cell binding [4] [%] | % positive cell binding [5] [%] | MFI [6] [MFI] | % positive cell binding [7] [%] | MFI [8] [MFI] | % positive cell binding [9] [%] | % of gated cells [10] [%] | % positive cell binding [11] [%] | % positive cell binding [12] [%] | MFI [13] [MFI] | MFI [14] [MFI] | MFI [15] [MFI] | % positive cell binding [16] [%] | % positive cell binding [17] [%] | % positive cell binding [19] [%] | % positive cell binding [21] [%] | MFI [22] [MFI] | also measured |
| --- | --- | --- | --- | --- | --- | --- | --- | --- | --- | --- | --- | --- | --- | --- | --- | --- | --- | --- | --- | --- | --- |
| B1 | 1 | < 1 | < 1 | < 1 | < 1 | 3140 | 1 | 556 | 1 | < 1 | 2 | < 1 | 1410 | 2150 | 3950 | < 1 | 1 | 1 | 1 | 1600 | MFI [18]: 147 MFI; MFI [20]: 57 MFI |
| B2 | 1 | < 1 | < 1 | < 1 | < 1 | 214 | 1 | 87 | 1 | 1 | 1 | < 1 | 140 | 179 | 154 | < 1 | 1 | 1 | < 1 | 295 | MFI [18]: 81 MFI; MFI [20]: 1490 MFI |
| B3 | < 1 | 1 | < 1 | < 1 | < 1 |  | < 1 |  | 1 | 1 | 2 | 1 |  | 3040 |  | < 1 | < 1 | 1 | < 1 | 2460 |  |
